Binding result and Kd data for one molecule are collected here from patent US20130034559A1 (AstraZeneca / MedImmune, published 2013).

The target in assay [1] is T1, extracellular domain of human CTLA-4 (R&D Systems, 325-CT) (human, UniProt P16410 36-161).
T1 construct: extracellular domain; Bought
T1 sequence (looked up): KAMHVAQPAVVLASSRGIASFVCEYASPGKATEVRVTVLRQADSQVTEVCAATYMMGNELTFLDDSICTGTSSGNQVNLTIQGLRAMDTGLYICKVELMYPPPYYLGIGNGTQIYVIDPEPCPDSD
Briefly: ELISA, biotinylated IgG1-TM on coated ECD. On the procedure:
(§1) ELISAs were performed to determine the cross-reactivity of the anti-B7-H1 IgG1-TM antibodies for other immune co-modulatory molecules. […] Murine cross reactivity was also investigated by coating the ECD of murine B7-H1 (R&D Systems, 1019-B7). Biotinylated anti-B7-H1 IgG1-TM diluted at 100 nM in PBS containing 3% dried milk powder, were incubated at room temperature for 2 h to allow binding. Bound biotinylated IgGs were detected with europium N1-labelled streptavidin (Perkin Elmer, 1244-360) at 0.2 ug/mL. […] Primary antibodies were incubated at 5 ug/mL in PBS containing 3% dried milk powder for 2 h at room temperature. Detection was carried out by incubating the secondary antibody anti-mouse IgG Peroxidase conjugate (Sigma, A2554) or anti-rat IgG Peroxidase conjugate (Sigma, A5795) diluted 1:5000 in PBS containing 3% dried milk powder for 1 h at room temperature and subsequent addition of TMB (Sigma, T0440). […] Non-specific binding was determined using wells coated with the IgG1 isotype control at 5 ug/mL. Cross reactivities were calculated at a percent of the specific binding to the antigen relative to human B7-H1.

The target in assay [2] is T2, extracellular domain of human B7-H2 (R&D Systems, 165-B7) (human, UniProt O75144 19-256).
T2 construct: extracellular domain; Bought
T2 sequence (looked up): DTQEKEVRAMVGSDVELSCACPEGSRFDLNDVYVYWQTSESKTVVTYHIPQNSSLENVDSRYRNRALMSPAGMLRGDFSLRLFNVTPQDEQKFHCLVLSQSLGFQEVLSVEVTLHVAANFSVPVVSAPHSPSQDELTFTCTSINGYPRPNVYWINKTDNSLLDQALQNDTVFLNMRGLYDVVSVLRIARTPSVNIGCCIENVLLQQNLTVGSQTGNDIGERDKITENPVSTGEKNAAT
Briefly: ELISA, biotinylated IgG1-TM on coated ECD. On the procedure:
as §1

Assay [3] has as its target T3, human PD-1/Fc protein (R&D Systems, catalog #1086-PD) (human, UniProt Q15116 25-170).
T3 construct: extracellular domain; Bought; not shown: Fc portion
Briefly: ELISA, biotinylated IgG1-TM on coated ECD. How it is done:
as §1

Assay [4] has as its target T4, extracellular domain of human CD28 (R&D Systems, 342-CD) (human, UniProt P10747 19-152).
T4 construct: extracellular domain; Bought
Put plainly: ELISA, biotinylated IgG1-TM on coated ECD. On the procedure:
as §1
(In general: ELISA stands for enzyme-linked immunosorbent assay.)

Assay [5] concerns the target T5, extracellular domain of human PD-L2 (R&D Systems, 1224-PL) (human, UniProt Q9BQ51 20-220).
T5 construct: extracellular domain; Bought
T5 sequence (looked up): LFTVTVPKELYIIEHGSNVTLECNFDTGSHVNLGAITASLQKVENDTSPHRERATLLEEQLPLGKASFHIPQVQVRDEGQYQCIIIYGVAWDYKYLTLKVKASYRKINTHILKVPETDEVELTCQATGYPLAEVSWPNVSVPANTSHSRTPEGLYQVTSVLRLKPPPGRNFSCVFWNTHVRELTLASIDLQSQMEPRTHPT
Put plainly: ELISA, biotinylated IgG1-TM on coated ECD. How it is done: as §1

The target of assay [6] is T6, extracellular domain of murine B7-H1 (R&D Systems, 1019-B7) (murine, UniProt Q9EP73 19-239).
T6 construct: extracellular domain; Bought
T6 sequence (Q9EP73 19-239): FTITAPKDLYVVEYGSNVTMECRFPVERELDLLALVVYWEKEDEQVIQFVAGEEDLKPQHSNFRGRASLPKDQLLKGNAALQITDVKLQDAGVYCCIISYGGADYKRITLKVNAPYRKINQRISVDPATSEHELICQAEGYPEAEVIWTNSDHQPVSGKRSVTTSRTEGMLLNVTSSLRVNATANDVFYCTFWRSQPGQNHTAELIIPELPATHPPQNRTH
Put plainly: ELISA, biotinylated IgG1-TM on coated murine B7-H1 ECD. How it is done:
as §1

Assay [7] deals with T7, recombinant monomeric cynomologus B7-H1 FlagHis10 extracellular domain (cynomologus).
T7 construct: extracellular domain; also called CYNO B7H1
Briefly: SPR (BIAcore T100), IgG captured via protein G, monomeric cynomologus B7-H1 ECD as analyte, 25 °C, 1:1 model. On the procedure:
The binding affinity and kinetic parameters of anti-B7-H1 antibodies in the IgG1-TM format to monomeric human and cynomologus B7-H1 were determined by surface plasmon resonance using a BIAcore T100 instrument (BIAcore, Uppsala, Sweden). In brief, experiments were performed at 25° C. using HBS-EP buffer (10 mM HEPES, 150 mM NaCl, 3 mM EDTA, 0.05% v/v surfactant P20) as running buffer. IgGs were affinity captured on the surface of a CM5 sensor chip (BIAcore) via protein G, which was amine coupled onto the CM5 surface to achieve the density of ˜500 Response Units (RU), according to the manufacturer's instructions (BIAapplications Handbook, BIAcore). Recombinant monomeric human or cynomologus B7-H1 FlagHis₁₀ extracellular domains (ECDs) were used as analytes. […] All measurements were baseline corrected by subtracting the sensorgram obtained with the control (activated-deactivated) flow cell, as well as double referenced with blank (zero analyte concentration) injections. Data were analyzed using the T-100 BIAevaluation software package and fitted to a simple 1:1 Langmuir binding model with local Rₘₐₓ and bulk refractive index set to 0. Data were calculated from at least two independent experiments. Mass transport effects were limited by keeping the level of affinity-captured IgGs below 250 RU.
In general terms: In SPR one partner is held on a chip, and binding of the other changes the refractive index at the surface.

T3 sequence (Q15116 25-170): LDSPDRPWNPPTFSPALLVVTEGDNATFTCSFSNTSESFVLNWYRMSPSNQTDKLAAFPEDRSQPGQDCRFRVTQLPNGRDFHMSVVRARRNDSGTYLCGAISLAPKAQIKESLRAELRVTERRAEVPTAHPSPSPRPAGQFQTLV
T4 sequence (P10747 19-152): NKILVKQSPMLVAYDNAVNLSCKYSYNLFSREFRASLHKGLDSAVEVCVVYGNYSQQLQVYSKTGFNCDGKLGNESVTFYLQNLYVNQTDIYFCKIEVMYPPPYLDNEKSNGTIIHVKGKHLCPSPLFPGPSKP

B1: 2.14H9OPT (antibody, V domains shown)
VH: EVQLVESGGGLVQPGGSLRLSCAASGFTFSRYWMSWVRQAPGKGLEWVANIKQDGSEKYYVDSVKGRFTISRDNAKNSLYLQMNSLRAEDTAVYYCAREGGWFGELAFDYWGQGTLVTVSS
VL: EIVLTQSPGTLSLSPGERATLSCRASQRVSSSYLAWYQQKPGQAPRLLIYDASSRATGIPDRFSGSGSGTDFTLTISRLEPEDFAVYYCQQYGSLPWTFGQGTKVEIK
notes: Germlined VL; human IgG1-TM (L234F, L235E, P331S), kappa
Broadly, the Kd is a measure of binding affinity in units of concentration. As for B1, the binding result in assay [1], in assay [2], in assay [3], in assay [4], in assay [5] and in assay [6] was “no binding (tested: 100 nM)” throughout. Besides, the Kd in assay [7] turned out to be 0.367 nM.
